Positions count from the first letter of the chain named.
B1: mAb22 (antibody, V domains shown)
VH: EVQLVESGGDLVKPGGSLKLSCAASGFTFSNHGMSWVRQTPDKRLEWVATISSGGSNTYFPDSVKGRFTISRDNVKNSLYLQMSSLKSEDTAMYYCARHGTSMIKEWFAYWGQGTLVTVSA
VL: DIVMTQSPVTLSVTPGDRVSLSCRASQSIGDYLHWYQQKSHESPRLLIKYASQSISGIPSRFSGSGSGSDFTLNINSVEPEDVGVYYCQHSHSFPPTFGGGTRLEIK
notes: Mouse hybridoma antibody
B2: mAb58 (antibody, V domains shown)
VH: QIQLVQSGPELKKPGETVKISCKASGYTFTTYGMSWVKQAPGKGLKLMGWINTYSGAPTYADDFKGRFAFSLETSASAAYLQINNLKNEDTATYFCARKPPHYYVNSFDYWGQGTTLTVSS
VL: B1 VL with V9A, G30S, N74S, H90N, S91G, P96Y, R103K
B3: mAb48 (antibody, V domains shown)
VH: QIQLQQSGPELVTPGTSVKISCKASGYTFTDYYINWVKQRPGQGLEWIGWIYPGSGNTKYNEKFKGKATLTVDTSSSIAYMHLSSLTSEDSAVYFCAGDRFDYWGQGTTLTVSS
VL: QIVLTQSPAIMSASPGEKVTLTCSASSGVSSSYLYWYQQKPGSSPKLWIYSTSNLASGVPARFSGSGSGTSYSLTISNMETEDAASYFCHQWSNSPYTFGGGTKLEIK
notes: Mouse hybridoma antibody
B4: mAb91 (antibody, V domains shown)
VH: DVQFQESGPGLVKPSQSLSLTCSVTGYSITSGYYWNWIRQFPGNKLEWMGYISYDGSNNYNPSLKNRISITRDTSKNQFFLKLNSVTTEDTATYYCGRDGPYYYGSSYGYFDVWGTGTTVTVSS
VL: DIVMTQAESSVPVTPGESVSISCRSSKSLLHSNGNTYLYWFLQRPGQSPQLLIHRMSNLASGVPDRFSGSGSGTAFTLRISRVEAEDMGVYYCMQHLEYPCTFGGGTKLEIK
notes: Mouse hybridoma antibody
B5: mAb15 (antibody, V domains shown)
VH: QVQLKESGPGLVAPSQSLSITCTVSGFSLTGYGVTWVRQPPGKGLEWLGMIWGDGNTDYNSGLKSRLNISKDNSKSQVFLKMNSLQTDDTARYYCARSYYYGPPDYWGQGTTLTVSS
VL: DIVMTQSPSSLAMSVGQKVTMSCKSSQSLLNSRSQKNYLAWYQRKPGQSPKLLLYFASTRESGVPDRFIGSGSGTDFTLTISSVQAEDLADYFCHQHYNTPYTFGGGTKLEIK
notes: also called JTx mAb 15; TIM-3 mAb15

Tests used:
Test in all cases: ELISA, construct coated on plate
hTIM3-Fc murine BC loop = molecular target: T1, hTIM3-Fc murine BC loop (human, BC loop replaced by mouse TIM-3)
T1 construct: Whole construct: chimeric ECD, linker and human IgG1 Fc; also called hTIM3-Fc BC loop chimera

hTIM3-Fc WT = molecular target: T2, hTIM3-Fc WT (human)
T2 construct: also called hTIM-3-hFc

hTIM3-Fc murine CC′ loop = molecular target: T3, hTIM3-Fc murine CC′ loop (human, CC′ loop replaced by mouse TIM-3)
T3 construct: Whole construct: chimeric ECD, linker and human IgG1 Fc; also called hTIM3-Fc CC′ loop chimera

hTIM3-Fc murine FG loop = molecular target: T4, hTIM3-Fc murine FG loop (human, FG loop replaced by mouse TIM-3)
T4 construct: Whole construct: chimeric ECD, linker and human IgG1 Fc; also called hTIM3-Fc FG loop chimera

hTIM3-Fc murine DE loop = molecular target: T5, hTIM3-Fc murine DE loop (human, DE loop replaced by mouse TIM-3)
T5 construct: Whole construct: chimeric ECD, linker and human IgG1 Fc; also called hTIM3-Fc DE loop chimera

[1] = molecular target: T6, hTIM3-Fc murine C′C″ loop (human, C′C″ loop replaced by mouse TIM-3)
T6 construct: Whole construct: chimeric ECD, linker and human IgG1 Fc; also called hTIM3-Fc C′C″ loop chimera

Absorbance at 450 nm (hTIM3-Fc murine BC loop) | Absorbance at 450 nm (hTIM3-Fc WT) | Absorbance at 450 nm (hTIM3-Fc murine CC′ loop) | Absorbance at 450 nm (hTIM3-Fc murine FG loop) | Absorbance at 450 nm (hTIM3-Fc murine DE loop) | Absorbance at 450 nm [1] | Binder
2.06 A450 | 2.13 A450 | 0.91 A450 | 2.22 A450 | – | – | B1
1.83 A450 | 1.39 A450 | 1.39 A450 | 1.9 A450 | 0.855 A450 | 0.338 A450 | B2
1.3 A450 | 1.39 A450 | 0.247 A450 | 1.53 A450 | – | – | B3
1.44 A450 | 1.57 A450 | 0.502 A450 | 1.74 A450 | 1.01 A450 | – | B4
– | – | – | – | 1.29 A450 | – | B5

From patent US20160200815A1 (JOUNCE THERAPEUTICS, published 2016)
